Measurements from patent US12692310B2, “ASIC1 channel antagonist antibody” (ShanghaiTech University, priority 2019, dated 2026).

How the values were obtained:
[1] = test system: hASIC1a-eYFP stable cells (6H7); assay: Acidosis-induced cell death, CCK8 and LDH release; type: cell-based
Protocol: Acidosis-Induced Cell Death. The hASIC1a-eYFP stable cells (6H7) and CHO-K1 cells were seeded in a 96-well plate at a density of 10,000 cells per well 1 d before treatment. ECF solutions at pH 5.5, 6.0, and 7.4 were used to treat the cells at 37° C. for 6 h. To test the rescuing effect of ASC06-IgG1, the antibody was dissolved in an acidic ECF (pH 5.5) to make the final antibody concentrations of 0, 50, 100, 300, 500, and 1,000 nM. The 6H7 cells were first preincubated with the antibody at the corresponding concentrations at 37° C. for 30 min in cell media. After replacing the cell media with the corresponding acidic ECFs, the cells were incubated at 37° C. for 6 h, washed with a PBS buffer (pH 7.4), and then cultured in a 1% FBS DMEM/F-12K media overnight. The supernatants of the overnight culture were collected for the LDH release measurement using a LDH Assay kit (#88953; Thermo Fisher Scientific). The cells viability was determined using the CCK-8 assay kit (#CK04; Dojindo).
Extracellular acidosis in stroke or ischemia-reperfusion injury is known to induce the activation of ASIC1a channels, which leads to neuronal death in the central nervous system, most likely through transient increase of intracellular calcium and related cell signaling mediated by ASIC1a. The survival of hASIC1a overexpressing stable cells was assessed by measuring the enzymatic activities of cytoplasmic dehydrogenases (CCK8 assay) and the concentrations of lactate dehydrogenase (LDH) secreted into the cell media, which reflect the cell viability and cytotoxicity, respectively. […] In the presence of […] ASC06-IgG1, approximately 45% of the ASIC1a expressing stable cells survived at pH 5.5 comparing to about a 5% survival rate in the absence of the antibody. Consistent with CCK8 result, the concentration of LDH released into cell media decreased after the addition of ASC06-IgG1 is also in a dose-dependent manner (FIG. 7D).

[2] = target: T1, hASIC1a (Homo sapiens, UniProt P78348); assay: Steady-state desensitization (SSD) and pH activation of hASIC1a, patch clamp; type: cell-based
T1 construct: expressed in transfected cells
T1 sequence (P78348 1-528): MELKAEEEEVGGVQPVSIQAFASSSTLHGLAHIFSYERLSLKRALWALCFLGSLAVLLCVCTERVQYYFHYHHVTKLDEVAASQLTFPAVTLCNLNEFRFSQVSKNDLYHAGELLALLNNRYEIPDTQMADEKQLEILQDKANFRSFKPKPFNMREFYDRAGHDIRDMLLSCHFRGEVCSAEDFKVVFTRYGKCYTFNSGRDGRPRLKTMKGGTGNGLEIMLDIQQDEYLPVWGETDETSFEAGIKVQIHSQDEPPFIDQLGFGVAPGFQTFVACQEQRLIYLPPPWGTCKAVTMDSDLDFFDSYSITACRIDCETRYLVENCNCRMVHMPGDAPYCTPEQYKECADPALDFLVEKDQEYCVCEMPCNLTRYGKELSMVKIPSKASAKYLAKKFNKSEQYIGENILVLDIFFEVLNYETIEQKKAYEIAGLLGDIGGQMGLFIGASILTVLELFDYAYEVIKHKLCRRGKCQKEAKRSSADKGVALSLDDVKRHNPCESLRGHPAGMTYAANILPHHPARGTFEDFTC
Protocol: For the measurement of steady-state desensitization (SSD), the pH of the conditioning ECF was adjusted to 7.6, 7.4, 7.2, 7.0, and 6.8 (in a HEPES buffer), while the activating ECF was maintained at pH 6.0 (in an MES buffer). For the measurement of pH activation of the hASIC1a in the 6H7 stable cells, the conditioning ECF was fixed at pH 7.6 (in a HEPES buffer), and the pH of the activating ECF was adjusted to 7.4, 7.2, 7.0, 6.8, 6.5, 6.3, and 6.0. The hASIC1a currents were recorded when the stable cell line 6H7 was patched in the presence and absence of 300 nM ASC06-IgG1. The relative currents expressed as fractions of the maximum amplitude on the sensorgram (I/Imax) were calculated and plotted to constitute SSD and pH activation profiles. Each data point represents the average of at least five patched cells.
To understand the mechanism by which ASC06-IgG1 blocked the hASIC1a currents, SSD and pH activation of hASIC1a in the absence and presence of ASC06-IgG1 were examined. The pH50 (a drop in extracellular pH, which can open 50% of the ASIC1a channel) values of the SSD curve and the pH activation curve for hASIC1a were measured and compared with or without 300 nM ASC06-IgG1. As shown in FIGS. 11A-11B, the SSD was induced when applying the conditioning extracellular fluids (ECFs) with different pH values and the activating ECF at pH 6.0, whereas the pH activation curve was constructed when applying the activating ECFs with varying pH values and the conditioning ECF at pH 7.6.

[3] = test system: hASIC1a F252A; assay: FACS binding to alanine mutant hASIC1a-eYFP on CHO-K1 cells; type: cell-based, human; conditions: vs WT hASIC1a
Protocol: To confirm the role of these amino acids, alanine mutagenesis was performed and four amino acids are very important for antibody binding were identified. Plasmid encoding single amino acid mutation of hASIC1a-eYFP was constructed and transient transfected into CHO-K1 cells. FACS binding assay was then performed to test whether the ASC06-IgG1 still binds to cell surface expressing mutated hASIC1a.

B1: ASC06-IgG1: ASC06 antibody converted into a full length IgG1 form (antibody, V domains shown)
VH: QVQLQQSGGGLVQPGGSLRLSCAASGFTFSSYAMSWVRQAPGKGLEWVSAISGSGGSTYYADSVKGRFTISRDNSKNTLYLQMNSLRAEDTAVYYCAKDSFYGYSKGDWGQGTLVTVSS
VL: QSALTQPASVSGSPGQSITISCTGTSSDVGAYNYVSWYQQQPGKAPKLMIYGVSNRPSGVSNRFSGSKSGNAASLTISGLQAEDEADYYCSSYTSSSTYVFGTGTKLTVLG
[1]; 1,000 nM antibody, pH 5.5, CCK8
  survival of ASIC1a expressing stable cells: approximately 45%
[1]; pH 5.5
  protective effect against acidosis-induced cell death, in words: significant dose-dependent protective effect
[1]; pH 5.5, dose-dependent
  concentration of LDH released into cell media: decreased
[2]
  mechanism of block relative to proton concentration: noncompetitive with the proton concentration
[2]; 300 nM, activating ECF pH 6.0
  change of pH50 value of SSD: No significant differences
[2]; 300 nM, conditioning ECF pH 7.6
  change of pH50 value of pH activation: No significant differences
[2]; 300 nM, representative traces
  interference with SSD and activation of ASIC1a: interferes with neither SSD nor activation
[3]
  binding to hASIC1a F252A mutation: so does
